Reference: patent publication US20150086555A1 (THERACLONE SCIENCES, published 2015)

Target: hemagglutinin (HA) of influenza A/Japan/305/57 (H2N2) on whole virions (Influenza A virus A/Japan/305/1957(H2N2), UniProt P03451 16-562)
Test: ELISA; BCC supernatant on coated inactivated whole virions

| Binder | ELISA virus binding (OD450) |
| --- | --- |
| TCN-564 (5256_A17b) (antibody, V domains shown) VH: QVQLVQSGADVKKPGSSVTVSCKASGGSFSNYGINWVRQAPGQGLEWMGGIIPLINAPNYAPKFQGRVTITADMFSNIVSLQLTSLRTDDTAVYYCARRKMTTAIDYWGQGTLVTVSS VL: QPVLSQPPSASASLGASVTLTCTLSSGFDNYQVAWYQQRPGKGPRFVMRVGNGGNVASKGDGIPDRFSVSGSGLNRYLTIKNIQEDDESDYYCGADHGSGNNFVSPYVFGGGTKLTVL | 1.1 |
| TCN-533 (5256_A17a) (antibody, V domains shown) VH: QVQLVQSGADVKKPGSSVTVSCKASGGSFSNYGINWVRQAPGQGLEWMGGIIPLINAPNYAPKFQGRVTITADMFSNIVSLQLTSLRTDDTAVYYCARRKMTTAIDYWGQGTLVTVSS VL: QPVLTQPPSASASLGASVTLTCTLSSAYSNYKVDWYQQRPGKGPRFVMRVGTGGIVGSKGDGIPDRFSVLGSGLNRYLTIKNIQEEDESDYHCGADHGSGSNFVSPYVFGGGTKLTVL | 1.1 |
| TCN-560 (5084_P10) (antibody, V domains shown) VH: EVQLVESGGGLVQPGGSLRLSCAASGFIFRNYWMSWVRQAPGKGLEWVANIKQDGREKYYVDSLRGRVNISRDNAENSLYLHMNSLRVEDTAVYFCARARMVVVTGDGFDVWGHGTMVTVSS VL: DIQMTQSPSSLSASVGDRVTITCRASQNIKRYFNWYQQKPGKAPKLLIYAASNLENGVPSRFSGSGSGTDFTLTISSLQPEDFATYYCQQSFSKSWTFGQGTNVDIK | 2.07 |
| TCN-540 (5060_F05) (antibody, V domains shown) VH: QVQLVQSGGGVVQPGRSLRLSCAASGFTFSSYAMHWVRQAPGKGLEWVAIISYDGNDQYYTDSVKGRFTISRDSSKVYLQMHRLRPEDTAVYYCAKEFETSGYFHGSFDYWGQGILVTVSS VL: QSALTQPASVSGSPGQSITISCTGTSSDVGGYNYVSWYQQHPGKAPKLLIYEVTNWPSGVSNRFSGSKSGNTASLTISGLQAEDEADYYCSSYAGSSTWVFGGGTRVTVL | 3.62 |
| TCN-526 (5084_C17) (antibody, V domains shown) VH: EVLMVESGGGLVQPGGSVRLSCVASGFSFSSHWMTWVRQAPGKGLEWVANIEDDGGDKYYVDSVKGRFIISRDNAKNSVYLQMNSLRAEDTAVYFCARGSGSSDRSDYDPHYYYYLDVWGKGATVTVSS VL: DIQLTQSPSSLSASVGDRVTITCRASQSISRYLNWYQQKPGKAPKLLLFAASTLLDGVPSRFSGSGSGTDFTLTISSLQPEDFATYYCQRNHSPSWTFGQGTRVEIK | 0.07 |
| TCN-535 (5246_P19) (antibody, V domains shown) VH: QVQLVQSGSEVKKPGTSVKVSCTASGSVFTNYGISWVRQAPGQGLEWMGGIIPLFGAAKYAQKFQGRVTITADESTKTVYMELSRLTSKDTAIYFCAKAPRVYEYYFDQWGQGTPVTVSS VL: EIVLTQSPGTLSLSPGERATLSCRASQSVSSSQLAWYQQKPGQAPRLIIYGASTRATGIPDRFSGSGSGTDFTLTIGRLEPEDFAVFFCQQYSTSPPTFGQGTKVDFK | 1.46 |
| TCN-534 (5249_B02) (antibody, V domains shown) VH: QVQLVQSGAEVKKPGSSVKVSCRESGGTFNGYTITWVRQAPGQGLEWMGGIIPMMGTVNYAQKLQGRVTITTDYFTKTAYMDLNNLRSEDTAMYYCVKIRYTGQQLLWGQGTLVTVSS VL: DIQMTQSPSTLSASIGDRVTITCRASQSIASWLAWYQQKPGKAPKLLIYEAVNLESGVPSRFSGSGSGTDFTLTISSLQPDDFATYFCQHYGTISQTFGGGTKVEIK | 2.56 |
| TCN-530 (5248_H10a) (antibody, V domains shown) VH: QVQLVQSGAEVRKPGSSVKVSCKASGGPFMSYAIGWVRQAPGQGLEWMGGINPVFGRPHYAQKFQGRVTIATDDSTKTSYMELSSLTSEDTGMYYCASRYSRSSPGTFESWGQGTLVTVSS VL: EIVMTQFPATLSVSPGERVTLSCRASQSVSNNLAWYQQKPGQPPRLLIYDASTRATGVPAKFSGTGSGTEFTLSISSLQSEDFAVYYCQQYHNWPPSYSFGLGTKLEIK | 1.73 |
| TCN-544 (5082_A19) (antibody, V domains shown) VH: QVQLQESGPGLVKPSETLSLTCTVSRGSIGHYFWSWIRQPPGKGLEWIGYISYSGSTKYNPSLRSRVTISVDTSKNQFSLNLNSVTATDTALYYCAREDYDILTGAGPGMEVWGQGTTVTVSS VL: QSMLTQPPSASGTPGQRVTISCSGSSSNIGSNTVNWFKHLPGTAPKLLIYRNDLRPSGVPDRFSGSKSGTSASLAISGLQSEDEADYYCATWDDSLNGFYVFGTGTKVTVL | 0.07 |
| TCN-539 (5056_A08) (antibody, V domains shown) VH: QVQLVESGGGVVQPGRSLRLSCAASEITFITYAMHWVRQAPGKGLEWVALISDDGSNKFYADSVKGRFTISRDNSKNTLYLQMNSLRAEDTAAYYCAREGVYFDSGTYRGYFDYWGQETLVTVSS VL: EIVLTQSPATLSLSPGERATLSCRASQSVSSYLAWYQQKPGQAPRLLIYDASNRATGIPARFSGSGSGTDFTLTISSLEPEDFAVYYCQQRSHWPPITFGQGTRLEIK | 0.06 |
| TCN-542 (5079_A16) (antibody, V domains shown) VH: QVQLQESGPGLVKPSQTLSLTCTVSGGSISSGNYYWNWVRQHPGKGLEWIGYIYYRGSTFYNPSLKSRVTISIDTSKNQFSLRLSSVTAADTAVYYCAKDTRSSLDNYQYGMDVWGQGTTVTVSS VL: QTVVTQEPSLTVSPGGTVTLTCASSTGAVTSSYFPNWFQQKPGQAPRPLIYSTTIRHSWTPARFSGSLLGGKAALTLSGVQPEDEADYYCLLYSGGDPVAFGGGTKLTVL | 0.08 |
| TCN-527 (5086_C06) (antibody, V domains shown) VH: QVQLQESGPGLVKPSETLSLNCAVSGGSISNYYWSWIRQPPGKGLEWIGYISYNGRPKYNPSLTSRVTISVDTSKDQFSLELRSVTAADTALYYCARETRFGELLSPYDAFEIWGQGTMVTVSS VL: DIQMTQSPSSLSASVGDRVTMTCRASQNIRSYLNWYQQRPGTAPKLLIYAASTLHSGVPSRFSGGGSGTDFTLTINNLQPEDFASYYCQQSYDNPQTFGQGTKVEIK | 1.48 |
| TCN-528 (5087_P17) (antibody, V domains shown) VH: QVQLVQSGSEVKKPGASVKVSCKASGYTFTNYDINWIRQAPGQGLEWMGWINPNSGTTGSAQRFQGRVTITVDTSITTVYMELSSLRSDDTAIYYCARGRELLRLQHFLTDSQSERRDCFDPWGQGTLVTVSS VL: DIQMTQSPSSLSASVGDRVTITCRANQDIGIYLNWYQQNPGKVPKLLLHGASSLQGGVPSRFSASGSGTDFTLTIHSLQPEDLATYYCQQSRRLPYTFGQGTRVELK | 2.82 |
| TCN-536 (5095_N01) (antibody, V domains shown) VH: QVQLQQWGAGLLKPSETLSLTCAVYGGSFSVSGYYWSWIRQPPGRGLEWIGEISHGGSTNYNPSLKSRVTISVDTTKNQFSLRLSSVTAADTAVYYCARGTDPDTEVYCRVGNCAAFDYWGQGSLVTVSS VL: EIILAQSPGTLSLSPGERATLSCRASQFVSTRSLAWYQQRPGQAPRLLIYGASSRATGIPDRFSGSGSGTDFTLTISRLEPEDFAVYYCQHYGYSPRYAFGQGSKVEIK | 0.08 |
| TCN-543 (5081_G23) (antibody, V domains shown) VH: QVHLVQSGAEVRKPGDSVKVSCKTSGYTFSTYPVAWVRQVPGQGLEWMGWISTYNGNTNFAQNFQGRVTLTTDTTTNTAYMEVRSLKFDDTAVYYCARVEGSYRDFWNNQNRFDPWGQGTLVTVSS VL: SYVLTQPPSVSVAPGQTARISCGGSNIGGKSVHWYQQKPGQAPVLVVYDDSGRPSGIPERFSGSNSGDTATLTISRVEAGDEADYFCQVWDNFGGVFGTGTKVTVL | 3.62 |
| TCN-521 (3280_D18) (antibody, V domains shown) VH: EVQLVQSGGGLVQPGGSLRLACVVSGFTVTSNYITWVRQAPGKGLEWVSVIYSHGRAYYSASVNGRFTISRHTSKNTVYLEMNSLRPEDTAVYYCAGGGLVGGYDEYFFDYWGQGTLATVSS VL: ETVLTQSPGTLSLTPGERATLSCRVGQSVSGSHLAWYQQKPGQAPRLLIYGASSRATGIPDRFGGSVSGTDFTLTISRLEPEDSAVYYCQQYGDSRYTFGQGTKLEIK | 3.1 |
| TCN-555 (5246_L16) (antibody, V domains shown) VH: QVQLVQSGAEVKRPGSSVKVSCTASGGIFRKNAISWVRQAPGQGLEWMGGIIAVFNTANYAQKFQNRVKITADESGNTAYMELSSLTSDDTAVYYCASHPKYFYGSGSYPDFWGQGTLVTVSS VL: QSALTQPRSVSGSPGQSITISCTGGSSDIGASNSVSWYQQHPGKAPKLVIFDVTERPSGVPHRFSGSKSGNTASLTVSGLQPDDEADYFCCAYGGKYLVVFGGGTKVTVL | 0.6 |
| TCN-563 (5237_B21) (antibody, V domains shown) VH: QVQLAQSGAEVKRPGSSVKVSCTASGGIFRKNAISWVRQAPGQGLEWMGGIIAVFNTANYAQKFQGRVKITADESGNTAYMELSSLRSDDTAVYYCASHPKYFYGSGSYPDFWGQGTLVTVSS VL: QSALTQPRSVSGSPGQSVTISCTGSSSDVGASNSVSWYQQHPGKAPKLVIYDVTERPSGVPHRFSGSKSGNTASLTVSGLQPEDEADYFCCAYGGKYLVVFGGGTKVTVL | 1.23 |
| TCN-545 (5082_I15) (antibody, V domains shown) VH: QVQLQQWGAGLLKPSETLSLSCAVFGGSFSDYYWTWIRQPPGKGLEWIGEIKHSGRTNYNPSLESRVTISVDTSKNQFSLKLSSVTAADTAIYYCARGTDPDTEGYCRSGSCSAFDFWGQGTLVTVSS VL: EIVLTQSPGTLSLSPGERATLSCRASHFVNYRSLAWYQQTPGQVPRLLIYGASTRATGIPDRFSGSGSGTDFTLTISRLEPEDFAVYFCQQYGGSPRYTFGQGTRLEIK | 0.06 |
| TCN-531 (5091_H13) (antibody, V domains shown) VH: EVQLVESGGDLVQPGRSLKLSCTGSGFTFGDYGVTWVRQAPGKGLEWVGFIRTRPWGGTADTAASVKGRFTISRDDSKSLAYLQMNSLKTEDTAVYYCCRDAPPNVEVASMTNWYFDLWGRGTLVTVSS VL: DIQLTQSPSSLSASVGDRVTITCRASQGILNCLAWYQQKPGKVPNLLMYAASTLQSGVPSRFSGSGFGTDFTLTISSLQPEDVATYYCQTYGGVSTFGGGTKVEIR | 0.67 |
